Results published in the supplement of paper PMC7125110.
± gives the standard error. This sample holds only a part of the variants without activity.

B1: glmS ribozyme (parent)
chain: AUAAAAGCGCCAGAACUACAGAAAUGUAGUUGACGAGGAGGAGGUUUAUCGAAUUUUCGGCGGAUGCCUCCAAA

Assays:
Conditions in all cases: with glucosamine-6-phosphate
glucosamine-6-phosphate [1] = variants of: B1; assay: self-cleavage kobs at 40 uM GlcN6P; higher = faster cleavage; RNA array
Method in brief: (§1)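 Glucosamine-6-phosphate in HEPES/KCl/Mg(OAc)2 buffer, at 40 μM to 10 mM, was flowed over barcoded ribozyme variants transcribed in situ by E. coli RNA polymerase on sequenced MiSeq chips. Tracking was through a hybridised Cy3 probe at 37 °C. kobs, kcat and KM came from exponential decay fits and weighted Michaelis–Menten fits of normalised per-tile medians.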

glucosamine-6-phosphate [2] = variants of: B1; assay: self-cleavage kobs at 160 uM GlcN6P; higher = faster cleavage; RNA array
Method in brief: as §1

glucosamine-6-phosphate [3] = variants of: B1; assay: self-cleavage kobs at 640 uM GlcN6P; higher = faster cleavage; RNA array
Method in brief: as §1

glucosamine-6-phosphate [4] = variants of: B1; assay: self-cleavage kobs at 2500 uM GlcN6P; higher = faster cleavage; RNA array
Method in brief: as §1

glucosamine-6-phosphate [5] = variants of: B1; assay: self-cleavage kobs at 10000 uM GlcN6P; higher = faster cleavage; RNA array
Method in brief: as §1

Row | Variant | self-cleavage kobs at 40 uM GlcN6P (glucosamine-6-phosphate [1]) | self-cleavage kobs at 160 uM GlcN6P (glucosamine-6-phosphate [2]) | self-cleavage kobs at 640 uM GlcN6P (glucosamine-6-phosphate [3]) | self-cleavage kobs at 2500 uM GlcN6P (glucosamine-6-phosphate [4]) | self-cleavage kobs at 10000 uM GlcN6P (glucosamine-6-phosphate [5])
1 | A36G A39G | < 1e-05 s⁻¹ | < 1e-05 s⁻¹ | < 1e-05 s⁻¹ | – | –
2 | A33C G43C | < 1e-05 s⁻¹ | < 1e-05 s⁻¹ | < 1e-05 s⁻¹ | < 1e-05 s⁻¹ | < 1e-05 s⁻¹
3 | C34G G43C U47A U49C U55G | < 1e-05 s⁻¹ | – | – | – | < 1e-05 s⁻¹
4 | A36G C50G | 3.66e-05 ± 1.5e-05 s⁻¹ | – | – | – | –
5 | C34U C50G | 5.12e-05 ± 1.3e-05 s⁻¹ | 0.000184 ± 3.2e-05 s⁻¹ | 0.000831 ± 0.00035 s⁻¹ | 5.23e-05 ± 2.2e-05 s⁻¹ | –
6 | G43U G44A | < 1e-05 s⁻¹ | < 1e-05 s⁻¹ | < 1e-05 s⁻¹ | < 1e-05 s⁻¹ | < 1e-05 s⁻¹
7 | A39C G40C U47A U56G | < 1e-05 s⁻¹ | – | – | – | –
8 | C50G A52C U69A | 8.7e-05 ± 2.7e-05 s⁻¹ | – | – | – | 4.8e-05 ± 1.6e-05 s⁻¹
9 | U30A U57G U65G | < 1e-05 s⁻¹ | – | – | – | –
10 | C16A G62U | < 1e-05 s⁻¹ | < 1e-05 s⁻¹ | < 1e-05 s⁻¹ | – | –
11 | G32A G40U C67G | < 1e-05 s⁻¹ | – | < 1e-05 s⁻¹ | < 1e-05 s⁻¹ | –
12 | C8U A48C | < 1e-05 s⁻¹ | – | < 1e-05 s⁻¹ | – | < 1e-05 s⁻¹
